Assay results published in paper PMC3318979.

Assays:
[1] = target: mitochondrial respiratory chain complex I (human) (UniProt Q16795); assay: native gel or EMSA
[2] = target: mitochondrial respiratory chain complex III dimer (human) (UniProt P22695); assay: native gel or EMSA
Chain of UniProt P22695 (P22695 whole entry, looked up, one chain of several): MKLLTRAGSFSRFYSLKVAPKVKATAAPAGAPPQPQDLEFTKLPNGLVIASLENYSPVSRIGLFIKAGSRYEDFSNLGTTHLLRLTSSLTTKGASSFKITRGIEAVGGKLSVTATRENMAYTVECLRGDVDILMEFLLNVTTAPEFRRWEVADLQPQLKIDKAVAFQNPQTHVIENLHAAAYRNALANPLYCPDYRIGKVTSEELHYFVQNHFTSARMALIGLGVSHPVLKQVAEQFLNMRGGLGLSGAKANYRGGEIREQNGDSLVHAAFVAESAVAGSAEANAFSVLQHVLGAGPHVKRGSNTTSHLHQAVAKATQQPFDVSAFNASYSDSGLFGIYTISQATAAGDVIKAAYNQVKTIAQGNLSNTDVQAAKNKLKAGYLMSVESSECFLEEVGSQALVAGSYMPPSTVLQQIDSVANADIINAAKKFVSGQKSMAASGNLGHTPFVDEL

Chain of UniProt Q16795 (Q16795 whole entry, looked up, one chain of several): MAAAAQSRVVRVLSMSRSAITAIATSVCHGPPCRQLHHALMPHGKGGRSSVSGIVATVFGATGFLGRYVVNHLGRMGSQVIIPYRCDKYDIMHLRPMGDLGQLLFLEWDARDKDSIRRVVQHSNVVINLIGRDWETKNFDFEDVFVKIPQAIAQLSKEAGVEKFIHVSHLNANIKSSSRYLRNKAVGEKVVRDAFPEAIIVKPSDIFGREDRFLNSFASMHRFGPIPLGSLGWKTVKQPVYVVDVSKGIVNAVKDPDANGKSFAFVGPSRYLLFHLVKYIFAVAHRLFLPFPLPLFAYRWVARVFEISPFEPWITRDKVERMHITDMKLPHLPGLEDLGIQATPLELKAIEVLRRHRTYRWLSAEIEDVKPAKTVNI

Substance | percent of the subunits' signal in I+III2+IVn supercomplexes [1] | percent of the subunits' signal in supercomplex III2+IV [2]
mitochondrial respiratory chain complex III dimer (from UniProt P22695 15-453; P47985 79-274) | 50% | –
mitochondrial respiratory chain complex IV (from UniProt P00395 1-513; P00403 1-227; P13073 23-169; P20674 42-150; P09669 1-75) | – | 1 to 3%
